In assay [1] the target is Recombinant human somatic ACE (sACE-1: Leu30-Leu1261, with C-terminal His tag) (human) (UniProt P12821). The assay can be described thus: cell-based or functional assay.
The target is the same in assay [2]. The experiment in a line: affinity based on the IC50 of sACE-1 inhibition (fluorogenic substrate cleavage).
The target of assay [3] is HCV protease (hepatitis C virus). The experiment in a line: affinity of metallopeptide for HCV protease; method not described.

Where no end group is shown, it is not given here. [ ]: non-standard residue; d: D form. Cha = N[C@@H](CC1CCCCC1)C(=O)O Some results are limits rather than exact numbers.

Recombinant human somatic ACE (sACE-1: Leu30-Leu1261, with C-terminal His tag) (human), sequence (P12821 30-1261 limits assumed): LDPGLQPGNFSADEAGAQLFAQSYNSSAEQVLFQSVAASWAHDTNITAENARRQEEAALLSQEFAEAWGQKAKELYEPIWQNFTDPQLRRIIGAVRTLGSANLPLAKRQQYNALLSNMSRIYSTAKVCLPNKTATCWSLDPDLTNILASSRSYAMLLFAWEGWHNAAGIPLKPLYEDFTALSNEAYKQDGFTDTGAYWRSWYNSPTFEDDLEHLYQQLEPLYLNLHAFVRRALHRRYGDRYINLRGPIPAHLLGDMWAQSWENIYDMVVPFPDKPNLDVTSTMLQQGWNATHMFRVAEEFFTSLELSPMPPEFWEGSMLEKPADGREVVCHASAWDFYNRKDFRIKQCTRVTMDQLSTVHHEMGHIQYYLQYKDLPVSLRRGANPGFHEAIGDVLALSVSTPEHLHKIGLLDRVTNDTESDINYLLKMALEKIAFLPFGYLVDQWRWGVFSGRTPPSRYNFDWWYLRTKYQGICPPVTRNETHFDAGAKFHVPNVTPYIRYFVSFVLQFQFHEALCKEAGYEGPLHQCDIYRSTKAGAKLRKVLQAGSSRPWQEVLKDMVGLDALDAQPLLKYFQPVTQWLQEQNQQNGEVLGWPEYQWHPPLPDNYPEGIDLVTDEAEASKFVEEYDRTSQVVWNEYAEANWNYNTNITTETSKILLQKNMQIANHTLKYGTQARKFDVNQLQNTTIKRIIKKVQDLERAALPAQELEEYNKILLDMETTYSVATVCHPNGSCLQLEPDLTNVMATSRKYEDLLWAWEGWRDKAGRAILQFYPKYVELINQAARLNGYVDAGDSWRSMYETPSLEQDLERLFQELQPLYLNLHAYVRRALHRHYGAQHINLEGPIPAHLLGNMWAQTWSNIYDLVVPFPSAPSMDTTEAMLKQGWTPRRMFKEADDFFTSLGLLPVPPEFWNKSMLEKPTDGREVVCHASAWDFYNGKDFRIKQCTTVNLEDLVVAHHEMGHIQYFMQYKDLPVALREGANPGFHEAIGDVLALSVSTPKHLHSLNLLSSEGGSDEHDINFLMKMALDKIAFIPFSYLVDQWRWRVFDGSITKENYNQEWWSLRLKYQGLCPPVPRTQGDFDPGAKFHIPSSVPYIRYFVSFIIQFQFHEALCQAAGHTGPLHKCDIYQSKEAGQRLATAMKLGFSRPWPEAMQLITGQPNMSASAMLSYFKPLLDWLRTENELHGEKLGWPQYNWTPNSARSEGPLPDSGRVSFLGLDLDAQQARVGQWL

Take “Co-GGH (M-chelate without lisinopril) (peptide)”: the second order rate constant for inactivation of sACE-1, ascorbate + H2O2 in assay [1] was < 333 M⁻¹ s⁻¹.

On to “Ni-GGH (M-chelate without lisinopril) (peptide)”, for which the second order rate constant for inactivation of sACE-1, ascorbate in assay [1] is < 83.3 M⁻¹ s⁻¹.

For [Cu-GGH]^1- (peptide), in assay [1], the IC50 of sACE-1 inhibition (cleavage of fluorogenic substrate) worked out at 17 µM; the second order rate constant for inactivation of sACE-1, H2O2 was < 33.3 M⁻¹ s⁻¹; the second order rate constant for inactivation of sACE-1, ascorbate was < 16.7 M⁻¹ s⁻¹; the second order rate constant for inactivation of sACE-1, ascorbate + H2O2 amounted to 167 M⁻¹ s⁻¹.

Regarding Co-GGH-lisinopril (peptide), in assay [1], the IC50 of sACE-1 inhibition (cleavage of fluorogenic substrate) worked out at 0.09 µM and the second order rate constant for inactivation of sACE-1, ascorbate + H2O2 worked out at 1170 M⁻¹ s⁻¹. Besides, in assay [2], the Ka was 1.11e+07 M⁻¹.

Take Cu-GGH-lisinopril (peptide): in assay [1], the IC50 of sACE-1 inhibition (cleavage of fluorogenic substrate) came to 1.47 µM; the second order rate constant for inactivation of sACE-1, H2O2 was found to be 467 M⁻¹ s⁻¹; the second order rate constant for inactivation of sACE-1, ascorbate turned out to be 1700 M⁻¹ s⁻¹; the second order rate constant for inactivation of sACE-1, ascorbate + H2O2 was determined as 2530 M⁻¹ s⁻¹. Also, the Ka in assay [2] is 680000 M⁻¹.

For Ni-GGH-lisinopril (peptide), in assay [1], the IC50 of sACE-1 inhibition (cleavage of fluorogenic substrate) came to 0.15 µM and the second order rate constant for inactivation of sACE-1, ascorbate came to 500 M⁻¹ s⁻¹. The Ka in assay [2] was determined as 6.67e+06 M⁻¹.

Consider GGHDEMEEC (SEQ ID NO: 71), for which, in assay [3], the affinity amounted to 48 µM.

As to GGHD[dE]LI[Cha]CP[Cha]DL, in assay [3], the affinity came to 0.01 µM.

Source of the values: US8859492.
